# Experimental data: patent US7070977
# System: PFEK-protease D-G-6×HIS zymogen
# Sequence (chain, as listed by the source): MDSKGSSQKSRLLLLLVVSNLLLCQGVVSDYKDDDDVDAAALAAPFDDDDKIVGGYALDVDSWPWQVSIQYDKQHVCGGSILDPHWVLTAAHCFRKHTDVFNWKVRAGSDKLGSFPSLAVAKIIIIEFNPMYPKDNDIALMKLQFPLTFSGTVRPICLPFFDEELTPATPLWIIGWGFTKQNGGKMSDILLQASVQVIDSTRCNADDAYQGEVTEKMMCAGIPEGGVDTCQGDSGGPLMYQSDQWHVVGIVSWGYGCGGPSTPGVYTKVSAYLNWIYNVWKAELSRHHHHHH
substance,measurement,value
enterokinase,cleavage and activation of the zymogen (SDS-PAGE mobility shift and Western blot),This demonstrates the quantitative cleavage of the expressed and purified zymogen to generate the processed and activated protease
